According to paper PMC9025568, “Identification and Characterization of Two Bibenzyl Glycosyltransferases from the Liverwort Marchantia polymorpha” (Antioxidants, 2022):

B1: MpUGT737B1 (Marchantia polymorpha) (protein)
chain: MELTNGTTRRAHVLMVCVPFPGHVAPFTQLLYHLSCHENLKVTVMGHKARNAEMIKLYEKGEFKGLDIHFETIFADPPVYPSDPKFPIRAALCADQMFVEFEPIRRRLVAEKDNVGAPTSIICDMFLWFTKDAADEMGVPWYPFFSTSQWFGYCAYIGDELARRNFHPHHSEEKDQRIDITGLEFAYVHDIPSEVLEFPEFYAKVTDRSFRATGILCNTAYELEGSAGTLMATKALVQRSGKKNLKGEEAQIIPVGPIAQIPGFGVQYSLRDQPYECLKWLNAHTEKSVLYIAFGSLGNIVPEVFHELALGLEAGGVPFLWALKLTPAQKEELLPEGFLERIQSSGMGFIESGWAPQTQILMHPAVGGFLSHCGWNSTLESLCAGVPMITWPLSADQPMNARFLVDVKKVAVTVLSGSADESVVTHDDISKAIKRLFGDEEGKQIAKNSLELKKLLASLVAEGGSTYKALRYFIQDLVMV
notes: full-length ORF (1443 bp, 480 residues) in pET32a(+), N-terminal Trx-S-His tag, E. coli BL21(DE3), purified
B2: MpUGT741A1 (Marchantia polymorpha) (protein)
chain: MGSHVERPPRALLFPVVASGHWGPFLQLILQLATKKLNFTLLADRGRCDELKAYQAKGAFATLDVEFLEVYTDPSTLSLRKDLVPAMWTNLESFISNGEFDPSRYTCMISDMFLYFCQDLADKWGIPNYFYVTCPTYFGLVLLHGEGIVDGGWIPQNPVKRKQFLDLPGLEMFTGGDMPMALTEMEPDLFHLLPRAIKGSAGLVFNSFEEFEKKPLSDLRDQLKLNAMPGKGPPTVFTIGPLLLLPGIPGALDDTKPVEKSESIAWLDKQQKSSVLFICFGSQRELPEPLITGIASGLEDTGVPFLWALRIPPQSSKIESLPEGFESRTQSRGLVLTSWVPQQEILLHPSVGGFLTHCGWNSILESMLGGVPIAAFPLYAEQRMNQRYMVNAVKTAVAIEGEHGQYEAKEIAAAIMRLLKGKEGVEARQNMQIMKEMAYAAMEEGGSSHKNLQNFLAEVQRVR
notes: full-length ORF (1392 bp, 463 residues) in pET32a(+), N-terminal Trx-S-His tag, E. coli BL21(DE3), purified

Assays:
Experiment in all cases: HPLC glucosylation assay, nonlinear fit (GraphPad Prism)
Format in all cases: biochemical, Marchantia polymorpha
[1] = substrate: Oc1ccc(CCc2cccc(O)c2)cc1; settings: UDP-glucose as donor, Tris-HCl, optimal pH (7.0-7.5), 30 °C, 12 min
Source text: (§1) HPLC glucosylation assay, nonlinear fit (GraphPad Prism) on MpUGT737B1

[2] = substrate: Oc1ccc(CCc2cc(O)cc(O)c2)cc1; settings: UDP-glucose as donor, Tris-HCl, optimal pH (7.0-7.5), 30 °C, 12 min
Source text: as §1

[3] = substrate: O=C(CCc1ccc(O)cc1)c1c(O)cc(O)cc1O; settings: UDP-glucose as donor, Tris-HCl, optimal pH (7.0-7.5), 30 °C, 12 min
Source text: as §1

[4] = substrate: Oc1ccc(CCc2cccc(O)c2)cc1; settings: UDP-glucose as donor; Tris-HCl, optimal pH (7.0), optimal temperature (25-30 °C), 12 min
Source text: HPLC glucosylation assay, nonlinear fit (GraphPad Prism) on MpUGT741A1

Protein | Km [1] | Vmax [1] | kcat [1] | kcat/Km [1] | Km [2] | Vmax [2] | kcat [2] | kcat/Km [2] | Km [3] | Vmax [3] | kcat [3] | kcat/Km [3] | Km [4] | Vmax [4] | kcat [4] | kcat/Km [4]
B1 | 39.3 ± 7.5 µM | 0.0373 µmol/min/mg | 0.033 ± 0.002 s⁻¹ | 846 M⁻¹ s⁻¹ | 45.6 ± 9.7 µM | 0.1 µmol/min/mg | 0.089 ± 0.006 s⁻¹ | 1960 M⁻¹ s⁻¹ | 50.2 ± 10.6 µM | 0.07 µmol/min/mg | 0.062 ± 0.005 s⁻¹ | 1240 M⁻¹ s⁻¹ | – | – | – | –
B2 | – | – | – | – | – | – | – | – | – | – | – | – | 89.2 ± 17.6 µM | 0.15 µmol/min/mg | 0.124 ± 0.012 s⁻¹ | 1500 M⁻¹ s⁻¹
